# Data: patent publication US6617427 (THOMAS JEFFERSON UNIVERSITY, dated 2003)
# T1: LexA-CLN3 (UniProt P13365 1-580, limits assumed)
# T1 construct: not shown: LexA, fusion partner
# T1 sequence (looked up): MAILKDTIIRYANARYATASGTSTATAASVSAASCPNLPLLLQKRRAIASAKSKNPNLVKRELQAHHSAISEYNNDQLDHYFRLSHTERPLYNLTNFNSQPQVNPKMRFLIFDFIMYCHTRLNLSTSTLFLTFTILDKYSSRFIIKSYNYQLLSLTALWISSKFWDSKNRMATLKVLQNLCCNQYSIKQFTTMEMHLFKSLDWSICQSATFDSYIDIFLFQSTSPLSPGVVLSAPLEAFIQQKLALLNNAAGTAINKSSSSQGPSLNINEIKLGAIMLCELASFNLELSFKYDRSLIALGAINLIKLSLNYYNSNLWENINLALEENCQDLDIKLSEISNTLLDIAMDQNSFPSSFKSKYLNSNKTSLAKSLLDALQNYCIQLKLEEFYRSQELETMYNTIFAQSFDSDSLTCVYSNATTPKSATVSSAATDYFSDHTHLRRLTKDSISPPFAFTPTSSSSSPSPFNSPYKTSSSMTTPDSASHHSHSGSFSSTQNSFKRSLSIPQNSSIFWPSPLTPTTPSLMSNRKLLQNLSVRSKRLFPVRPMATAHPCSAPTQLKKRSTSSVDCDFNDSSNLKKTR
# T2: LexA-ftz (UniProt P02835 1-410, limits assumed)
# T2 construct: not shown: LexA, fusion partner
# T2 sequence (looked up): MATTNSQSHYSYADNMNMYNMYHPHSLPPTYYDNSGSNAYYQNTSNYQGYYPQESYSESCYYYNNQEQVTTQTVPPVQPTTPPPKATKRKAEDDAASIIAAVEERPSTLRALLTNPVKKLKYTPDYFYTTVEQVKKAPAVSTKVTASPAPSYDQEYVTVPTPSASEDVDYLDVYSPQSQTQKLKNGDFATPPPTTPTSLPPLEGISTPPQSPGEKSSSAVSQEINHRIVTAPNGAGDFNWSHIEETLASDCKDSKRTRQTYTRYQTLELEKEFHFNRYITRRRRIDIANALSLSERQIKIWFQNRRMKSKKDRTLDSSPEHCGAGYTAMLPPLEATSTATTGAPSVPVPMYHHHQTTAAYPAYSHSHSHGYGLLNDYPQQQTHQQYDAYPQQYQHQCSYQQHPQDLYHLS
# T3: LexA-daughterless (UniProt P11420 1-710, limits assumed)
# T3 construct: not shown: LexA, fusion partner
# T3 sequence (looked up): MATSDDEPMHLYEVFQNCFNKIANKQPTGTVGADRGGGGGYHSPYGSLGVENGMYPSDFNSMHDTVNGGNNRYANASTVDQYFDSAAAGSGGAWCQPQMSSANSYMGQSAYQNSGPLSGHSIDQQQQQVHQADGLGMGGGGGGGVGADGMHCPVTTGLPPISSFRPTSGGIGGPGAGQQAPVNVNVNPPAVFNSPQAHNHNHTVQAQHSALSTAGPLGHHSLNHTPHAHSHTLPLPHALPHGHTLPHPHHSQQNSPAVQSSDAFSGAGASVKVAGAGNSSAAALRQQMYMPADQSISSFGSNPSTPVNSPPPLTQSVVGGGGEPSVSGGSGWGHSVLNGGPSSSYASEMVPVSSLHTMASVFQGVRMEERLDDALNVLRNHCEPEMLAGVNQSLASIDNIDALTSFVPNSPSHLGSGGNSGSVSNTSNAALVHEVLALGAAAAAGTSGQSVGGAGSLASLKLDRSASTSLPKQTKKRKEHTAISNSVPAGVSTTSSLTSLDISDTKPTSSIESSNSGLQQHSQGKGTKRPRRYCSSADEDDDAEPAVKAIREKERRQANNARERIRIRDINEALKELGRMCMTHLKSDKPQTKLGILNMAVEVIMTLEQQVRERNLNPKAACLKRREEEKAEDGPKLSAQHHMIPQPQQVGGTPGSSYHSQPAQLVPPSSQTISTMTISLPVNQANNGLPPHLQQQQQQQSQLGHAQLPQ
# T4: LexA-hairy (UniProt P14003 1-337, limits assumed)
# T4 construct: not shown: LexA, fusion partner
# T4 sequence (looked up): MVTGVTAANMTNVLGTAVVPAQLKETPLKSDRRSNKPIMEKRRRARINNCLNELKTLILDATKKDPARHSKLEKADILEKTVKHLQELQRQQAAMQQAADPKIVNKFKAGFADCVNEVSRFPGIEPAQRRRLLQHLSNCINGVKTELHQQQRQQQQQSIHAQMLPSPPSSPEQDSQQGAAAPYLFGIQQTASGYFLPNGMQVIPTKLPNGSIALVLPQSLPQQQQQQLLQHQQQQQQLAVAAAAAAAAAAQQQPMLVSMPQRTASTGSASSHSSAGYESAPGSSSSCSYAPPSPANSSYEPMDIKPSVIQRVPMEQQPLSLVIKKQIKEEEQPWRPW
# B1: B42-Tvl-1 fusion (Tvl-1 a.a. 81-269 fused to the activation domain B42) (other, not shown: large carriers)
# chain: VSALPATLDSLSIHQLAAQGELSQLKDHLRKGACPACTCLSGNNLINKPDERGFTPLIWASAFGEIETVRFLLDWGADPHILAKERESALSLASMGGYTDIVRLLLDRDVDINIYDWNGGTPLLYAVRGNHVKCVEALLARGADLTTEADSGYTPMDLAVALGYRKVQQVMESHILRLFQSTLGPVDPE
# notes: Yeast two-hybrid prey; also called acid blob-Tvl-1
# B2: Tvl-1 N-terminal portion (a.a. 1-96) (other)
# chain: MEPTQVAENLVPNQQPPVPDLEDPEDTRDESPENSDTVVLSLFPCTPDAVNPEADASASSLQGSFLKHSTTLTNRQRGNEVSALPATLDSLSIHQL
# B3: LexA-bicoid (other, UniProt P09081 2-160, looked up)
# chain: AQPPPDQNFYHHPLPHTHTHPHPHSHPHPHSHPHPHHQHPQLQLPPQFRNPFDLLFDERTGAINYNYIRPYLPNQMPKPDVFPSEELPDSLVMRRPRRTRTTFTSSQIAELEQHFLQGRYLTAPRLADLSAKLALGTAQVKIWFKNRRRRHKIQSDQHK
# notes: not shown: LexA, fusion partner
# Columns and labels:
# LexA-CLN3 = target: T1, LexA-CLN3; experiment: yeast interaction mating, B42 Tvl-1 against LexA fusion (data not shown)
# LexA-SSN6 = target: T5, LexA-SSN6 (UniProt P14922 1-966, limits assumed); experiment: as above
# T5 construct: not shown: LexA, fusion partner
# T5 sequence (P14922 whole entry, the tested form may be a part): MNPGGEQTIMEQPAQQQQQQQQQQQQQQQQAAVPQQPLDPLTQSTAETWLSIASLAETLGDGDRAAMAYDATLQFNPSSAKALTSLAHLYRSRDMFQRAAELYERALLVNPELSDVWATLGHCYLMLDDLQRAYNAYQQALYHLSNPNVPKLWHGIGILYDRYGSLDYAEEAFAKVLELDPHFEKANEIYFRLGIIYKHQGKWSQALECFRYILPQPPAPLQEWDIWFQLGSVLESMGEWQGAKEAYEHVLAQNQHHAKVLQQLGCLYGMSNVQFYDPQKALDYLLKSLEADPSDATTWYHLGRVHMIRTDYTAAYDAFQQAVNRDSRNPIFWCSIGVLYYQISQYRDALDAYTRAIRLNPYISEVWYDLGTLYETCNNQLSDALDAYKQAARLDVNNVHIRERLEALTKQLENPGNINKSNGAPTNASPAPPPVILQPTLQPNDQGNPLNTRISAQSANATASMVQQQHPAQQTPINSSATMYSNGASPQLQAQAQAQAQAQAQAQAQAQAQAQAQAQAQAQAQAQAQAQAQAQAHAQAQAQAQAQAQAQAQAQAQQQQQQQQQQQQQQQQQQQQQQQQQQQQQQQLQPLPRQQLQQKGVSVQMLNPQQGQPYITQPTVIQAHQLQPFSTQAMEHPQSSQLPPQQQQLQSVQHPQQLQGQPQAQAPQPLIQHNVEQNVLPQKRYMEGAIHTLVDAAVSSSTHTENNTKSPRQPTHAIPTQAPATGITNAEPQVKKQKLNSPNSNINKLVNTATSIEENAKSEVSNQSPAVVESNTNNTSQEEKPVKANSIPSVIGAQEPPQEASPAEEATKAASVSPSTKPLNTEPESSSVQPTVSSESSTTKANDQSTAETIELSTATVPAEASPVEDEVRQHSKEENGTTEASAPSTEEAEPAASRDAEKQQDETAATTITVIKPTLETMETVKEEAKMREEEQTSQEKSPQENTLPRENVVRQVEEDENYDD
# LexA-ftz = target: T2, LexA-ftz; experiment: as above
# LexA-DMcdc2 = target: T6, LexA-DMcdc2 (UniProt P23572 1-297); experiment: as above
# T6 construct: not shown: LexA, fusion partner
# T6 sequence (P23572 whole entry, the tested form may be a part): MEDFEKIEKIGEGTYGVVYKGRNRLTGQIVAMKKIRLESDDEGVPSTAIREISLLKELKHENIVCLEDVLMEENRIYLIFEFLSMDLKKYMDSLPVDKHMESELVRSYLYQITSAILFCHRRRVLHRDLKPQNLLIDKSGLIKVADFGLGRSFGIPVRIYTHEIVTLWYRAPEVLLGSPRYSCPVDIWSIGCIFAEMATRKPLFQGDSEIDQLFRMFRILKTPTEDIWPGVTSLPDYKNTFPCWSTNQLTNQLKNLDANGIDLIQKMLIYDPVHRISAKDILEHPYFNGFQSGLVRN
# LexA-daughterless = target: T3, LexA-daughterless; experiment: as above
# LexA-hairy = target: T4, LexA-hairy; experiment: as above
# LexA-Raf-1 = target: T7, LexA-Raf-1 (human, UniProt P0A7C2 1-202; P04049 1-648, limits assumed); experiment: yeast two-hybrid (data not shown)
# T7 construct: Yeast two-hybrid bait; also called LexA fusion of Raf-1 (#1)
# [1] = target: B1; experiment: yeast interaction mating, B42 Tvl-1 against LexA fusion (data not shown)
binder,measurement,setting,value
B1,binding result,LexA-CLN3,no binding
same,binding result,LexA-SSN6,no binding
same,binding result,LexA-ftz,no binding
same,binding result,LexA-DMcdc2,no binding
same,binding result,LexA-daughterless,no binding
same,binding result,LexA-hairy,no binding
B2,binding result,LexA-Raf-1,no binding
B3,binding result,[1],no binding
